Data reported in US8784824B2, “Compositions and methods for treatment of angiogenesis in pathological lesions” (Philogen S.p.A., priority 2000, dated 2014).

Tests used:
[1] = test system: blood vessels of the F9 mouse tumor; assay: Microautoradiography of tumors and organs of F9 tumor-bearing mice; assay type: in vivo
Protocol: (§1) Tumor and organ specimens were processed for microautoradiography to assess the pattern of ^125I-L19-IL2 fusion protein distribution within the tumors or organs as described by Tarli et al. 1999 (12). Immunohistochemical procedures were carried out as reported by Castellani et al. 1994 (11). The nonparametric Mann-Whitney test was used to assess the differences in tumor weights between the three different groups of animals (mice treated with L19-IL2 fusion protein, with mixture of L19+IL2 and PBS).
(§2) Tumor and organ specimens were processed for microautoradiography to assess the pattern of ^125I-L19TNFα fusion protein distribution within the tumors or organs as described by Tarli et al (Blood, 94: 192-198, 1999). Immunohistochemical procedures were carried out as reported by Castellani et al (Int. J. Cancer, 59: 612-618, 1994).

[2] = test system: subcutaneously implanted F9 murine teratocarcinoma; assay: Biodistribution of radiolabeled L19-mTNFα fusion protein in tumor-bearing mice; assay type: in vivo, mouse; details: F9 tumor-bearing 129 mice
Protocol: (§3) Purified L19-mTNFα was radiolabeled with iodine-125 using the Iodogen method (Salacinski et al., Anal. Biochem., 117: 136, 1981)(Pierce, Rockford, Ill.). After labelling, the immunoreactivity was more than 90%. 129 mice with subcutaneously implanted F9 murine teratocarcinoma were intravenously injected with 4 μg (2 μCi) of protein in 100 μl saline solution. Three animals were used for each time point. Mice were sacrificed at 3, 6, 24 and 48 hours after injection. The organs were weighed and the radioactivity was counted. All organs and tumors were placed in fixative for histological analysis and microautoradiography. Targeting results of representative organs are expressed as percent of the injected dose per gram of tissue (% ID/g).

[3] = test system: blood vessels of glioblastoma tumor; assay: Immunohistochemistry on glioblastoma tumor
Protocol: as §1, §2

[4] = molecular target: ED-B domain of fibronectin (Homo sapiens, UniProt P02751); assay: Immunoreactivity of L19-mTNFα after radiolabelling; assay type: binding; parameters: recombinant ED-B domain of human Fibronectin (FN) as antigen; made in house; details: iodine-125, Iodogen method
Protocol: as §3

[5] = test system: C51 murine colon carcinoma; assay: In vivo treatment with L19-mTNFα fusion protein; parameters: species or system mouse
Protocol: Treatment with purified L19-mTNFα fusion protein was preformed in groups of 3 Balb.C mice each injected subcutaneously with 10^6 of C51 cells. At day 12 after C51 cell injection, 0.8 μg/g of L19-TNFα fusion protein was injected into the tail vein of each animal. A similar group of 3 animals was injected with Phosphate Saline Buffer, pH 7.4 (PBS). The animals were followed for systemic toxicity (weight loss) and tumor growth daily for 6 days. At the end, animals were sacrificed and tumors were placed in fixative for histological analysis and snap frozen for immunohistochemical analysis.
The efficacy of the L19-mTNFα fusion protein in suppressing tumor growth was tested on one experimental tumor model of mouse adenocarcinoma, C51. For tumor induction, 10^6 C51 cells were injected subcutaneously in Balb/C animals. After 12 days (when the tumor reaches approximately 100-200 mm^3) animals received intravenous injections of either PBS (3 animals) or L19-mTNFα fusion protein (3 animals). The animals were monitored for weight and tumor growth daily for 6 days. […] The weight loss was always less than 6% throughout the experiment time.

[6] = in vivo; cited from earlier work

Chain of ED-B domain of fibronectin (P02751 1271-1359 limits assumed): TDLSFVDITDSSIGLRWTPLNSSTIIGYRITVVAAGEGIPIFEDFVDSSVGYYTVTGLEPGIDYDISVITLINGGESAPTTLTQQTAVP

## L19-mTNFα fusion protein: fusion of mouse TNFα to the scFv L19 via a 15 amino acid linker
[1]; F9 mouse tumor, microradiographic analysis
  accumulation of radiolabeled fusion protein in tumor blood vessels: Accumulation of the radiolabeled fusion protein was shown
[1]; organs of F9 tumor bearing mice
  accumulation of radiolabeled fusion protein in vessels of other organs: No accumulation
[2]; 3 h after i.v. injection
  % ID/g Bladder: 37.52 ± 26.7 % ID/g
  % ID/g Blood: 8.39 ± 5.0 % ID/g
  % ID/g Heart: 2.69 ± 0.7 % ID/g
  % ID/g Kidney: 7.96 ± 3.0 % ID/g
  % ID/g Liver: 8.42 ± 1.9 % ID/g
  % ID/g Lung: 6.56 ± 1.7 % ID/g
  % ID/g Muscle: 1.33 ± 0.3 % ID/g
  % ID/g Skin: 2.83 ± 1.3 % ID/g
  % ID/g Spleen: 9.08 ± 2.0 % ID/g
  % ID/g Thyroid: 3.21 ± 0.8 % ID/g
  % ID/g Tumor: 22 % ID/g
[2]; 3 h after i.v. injection, listed as L19-TNFa fusion protein
  % ID/g Tumor: 22.02 ± 2.3 % ID/g
[2]; 6 h after i.v. injection
  % ID/g Bladder: 18.14 ± 9.1 % ID/g
  % ID/g Blood: 2.13 ± 0.9 % ID/g
  % ID/g Heart: 1.32 ± 0.5 % ID/g
  % ID/g Kidney: 6.06 ± 5.2 % ID/g
  % ID/g Liver: 2.39 ± 0.9 % ID/g
  % ID/g Lung: 2.79 ± 1.4 % ID/g
  % ID/g Muscle: 0.76 ± 0.2 % ID/g
  % ID/g Skin: 1.68 ± 0.9 % ID/g
  % ID/g Spleen: 3.29 ± 0.9 % ID/g
  % ID/g Thyroid: 2.91 ± 1.8 % ID/g
  % ID/g Tumor: 11.57 ± 2.7 % ID/g
[2]; 24 h after i.v. injection
  % ID/g Bladder: 2.9 ± 2.2 % ID/g
  % ID/g Blood: 0.09 ± 0.0 % ID/g
  % ID/g Heart: 0.06 ± 0.0 % ID/g
  % ID/g Kidney: 0.18 ± 0.0 % ID/g
  % ID/g Liver: 0.15 ± 0.0 % ID/g
  % ID/g Lung: 0.18 ± 0.1 % ID/g
  % ID/g Muscle: 0.05 ± 0.0 % ID/g
  % ID/g Skin: 0.03 ± 0.0 % ID/g
  % ID/g Spleen: 0.13 ± 0.0 % ID/g
  % ID/g Thyroid: 1.93 ± 0.5 % ID/g
  % ID/g Tumor: 9.77 ± 1.4 % ID/g
[2]; 48 h after i.v. injection
  % ID/g Bladder: 0.08 ± 0.0 % ID/g
  % ID/g Blood: 0.01 ± 0.0 % ID/g
  % ID/g Heart: 0.01 ± 0.0 % ID/g
  % ID/g Kidney: 0.05 ± 0.0 % ID/g
  % ID/g Liver: 0.02 ± 0.0 % ID/g
  % ID/g Lung: 0.02 ± 0.0 % ID/g
  % ID/g Muscle: 0.0 ± 0.0 % ID/g
  % ID/g Skin: 0.01 ± 0.0 % ID/g
  % ID/g Spleen: 0.01 ± 0.0 % ID/g
  % ID/g Thyroid: 0.0 ± 0.0 % ID/g
  % ID/g Tumor: more than 9 % ID/g
[2]; 48 h after i.v. injection, listed as L19-TNFa fusion protein
  % ID/g Tumor: 9.55 ± 1.7 % ID/g
[3]
  immunohistochemical staining of blood vessels: strongly stain blood vessels of glioblastoma tumor
[4]
  immunoreactivity after labelling: more than 90%
[5]; 0.8 μg/g i.v. at day 12, followed 6 days (FIG. 23)
  tumor growth with respect to animals injected with PBS: decrease in tumor growth
[5]; throughout the experiment time (6 days)
  weight loss: less than 6%

## TNFα
[6]
  plasma half-life: less than 30 minutes
